Source: US8840891 (RSR, dated 2014)
Where two headings read alike, the source gives them in different places.

Legend:
[1] = biological target: TSHR coated onto tubes (human) (UniProt P16473); test: TSHR coated tubes, competitor 125I-M22 IgG
[2] = biological target: TSHR with Trp258 mutated to Alanine (human) (UniProt P16473); test: cell-based or functional assay
[3] = biological target: TSHR with Ile60 mutated to Alanine (human) (UniProt P16473); test: cell-based or functional assay
[4] = biological target: wild type human TSHR (human) (UniProt P16473); test: cell-based or functional assay
[5] = biological target: wild type human TSHR (human) (UniProt P16473); test: cell-based or functional assay; remark: listed apart in the source
[6] = biological target: TSHR with Asp160 mutated to Lysine (human) (UniProt P16473); test: cell-based or functional assay
[7] = biological target: wild type human TSHR (human) (UniProt P16473); test: cell-based or functional assay; remark: listed apart in the source
[8] = biological target: TSHR with Lys183 mutated to Aspartic acid (human) (UniProt P16473); test: cell-based or functional assay
[9] = biological target: TSHR coated onto tubes (TSHR coated tubes) (human) (UniProt P16473); test: TSHR coated tubes, in the presence of HBD pool (Tables 4a, 4b)
[10] = biological target: TSHR coated onto tubes (TSHR coated tubes) (human) (UniProt P16473); test: TSHR coated tubes, in the presence of HBD pool (Table 5)
[11] = biological target: wild type human TSHR (thyrotropin receptor) expressed on CHO cells (human) (UniProt P16473); test: cell-based or functional assay
[12] = biological target: TSHR with Lys209 mutated to Alanine expressed on CHO cells (human) (UniProt P16473); test: cell-based or functional assay
[13] = biological target: TSHR with Glu178 mutated to Alanine expressed on CHO cells (human) (UniProt P16473); test: cell-based or functional assay
[14] = biological target: wild type human TSHR (thyrotropin receptor) expressed on CHO cells (human) (UniProt P16473); test: cell-based or functional assay; remark: listed apart in the source
[15] = biological target: TSHR coated onto tubes (TSHR coated tubes) (human) (UniProt P16473); test: TSHR coated tubes
[16] = biological target: TSHR with Asp203 mutated to Alanine expressed on CHO cells (human) (UniProt P16473); test: cell-based or functional assay
[17] = biological target: wild type human TSHR (thyrotropin receptor) expressed on CHO cells (human) (UniProt P16473); test: cell-based or functional assay; remark: listed apart in the source
[18] = biological target: TSHR coated on ELISA plate wells (RSR Ltd) (human) (UniProt P16473); test: ELISA on TSHR-coated wells, 5C9 IgG-biotin binding with HBD pool (no competitor)

5C9 IgG (antibody)
% inhib of 125I-M22 IgG binding at 0.01 µg/mL [1]: 5% | % inhib of 125I-M22 IgG binding at 0.1 µg/mL [1]: 6% | % inhib of 125I-M22 IgG binding at 1 µg/mL [1]: 14% | % inhib of 125I-M22 IgG binding at 10 µg/mL [1]: 22% | % inhib of 125I-M22 IgG binding at 100 µg/mL [1]: 53% | Mutated/wild type (%); 5C9 0.01 µg/mL + TSH [2]: 34% | Mutated/wild type (%); 5C9 0.1 µg/mL + TSH [2]: 19% | Mutated/wild type (%); 5C9 1.0 µg/mL + TSH [2]: 43% | Mutated/wild type (%); 5C9 10 µg/mL + TSH [2]: 30% | Mutated/wild type (%); 5C9 100 µg/mL + TSH [2]: 37% | Mutated/wild type (%); 5C9 100 µg/mL only [2]: 200% | cyclic AMP; 5C9 0.01 µg/mL + TSH (fmol/cell well) [2]: 6620 | cyclic AMP; 5C9 0.1 µg/mL + TSH (fmol/cell well) [2]: 1940 | cyclic AMP; 5C9 1.0 µg/mL + TSH (fmol/cell well) [2]: 1130 | cyclic AMP; 5C9 10 µg/mL + TSH (fmol/cell well) [2]: 357 | cyclic AMP; 5C9 100 µg/mL + TSH (fmol/cell well) [2]: 484 | cyclic AMP; 5C9 100 µg/mL only (fmol/cell well) [2]: 423 | Mutated/wild type (%); 5C9 0.01 µg/mL + TSH [3]: 236% | Mutated/wild type (%); 5C9 0.1 µg/mL + TSH [3]: 164% | Mutated/wild type (%); 5C9 1.0 µg/mL + TSH [3]: 210% | Mutated/wild type (%); 5C9 10 µg/mL + TSH [3]: 68% | Mutated/wild type (%); 5C9 100 µg/mL + TSH [3]: 181% | Mutated/wild type (%); 5C9 100 µg/mL only [3]: 426% | cyclic AMP; 5C9 0.01 µg/mL + TSH (fmol/cell well) [3]: 19000 | cyclic AMP; 5C9 0.1 µg/mL + TSH (fmol/cell well) [3]: 11600 | cyclic AMP; 5C9 1.0 µg/mL + TSH (fmol/cell well) [3]: 3290 | cyclic AMP; 5C9 10 µg/mL + TSH (fmol/cell well) [3]: 1210 | cyclic AMP; 5C9 100 µg/mL + TSH (fmol/cell well) [3]: 3130 | cyclic AMP; 5C9 100 µg/mL only (fmol/cell well) [3]: 260 | cyclic AMP; 5C9 0.01 µg/mL + TSH (fmol/cell well) [4]: 8020 | cyclic AMP; 5C9 0.1 µg/mL + TSH (fmol/cell well) [4]: 7100 | cyclic AMP; 5C9 1.0 µg/mL + TSH (fmol/cell well) [4]: 1570 | cyclic AMP; 5C9 10 µg/mL + TSH (fmol/cell well) [4]: 1770 | cyclic AMP; 5C9 100 µg/mL + TSH (fmol/cell well) [4]: 1730 | cyclic AMP; 5C9 100 µg/mL only (fmol/cell well) [4]: 61 | cyclic AMP; 5C9 0.01 µg/mL + M22 (fmol/cell well) [5]: 16700 | cyclic AMP; 5C9 0.1 µg/mL + M22 (fmol/cell well) [5]: 9380 | cyclic AMP; 5C9 1.0 µg/mL + M22 (fmol/cell well) [5]: 821 | cyclic AMP; 5C9 10 µg/mL + M22 (fmol/cell well) [5]: 208 | cyclic AMP; 5C9 100 µg/mL + M22 (fmol/cell well) [5]: 301 | cyclic AMP; 5C9 100 µg/mL only (fmol/cell well) [5]: 429 | Mutated/wild type (%); 5C9 0.01 µg/mL + M22 [6]: 91% | Mutated/wild type (%); 5C9 0.1 µg/mL + M22 [6]: 82% | Mutated/wild type (%); 5C9 1.0 µg/mL + M22 [6]: 117% | Mutated/wild type (%); 5C9 10 µg/mL + M22 [6]: 309% | Mutated/wild type (%); 5C9 100 µg/mL + M22 [6]: 218% | Mutated/wild type (%); 5C9 100 µg/mL only [6]: 107% | cyclic AMP; 5C9 0.01 µg/mL + M22 (fmol/cell well) [6]: 15200 | cyclic AMP; 5C9 0.1 µg/mL + M22 (fmol/cell well) [6]: 7700 | cyclic AMP; 5C9 1.0 µg/mL + M22 (fmol/cell well) [6]: 963 | cyclic AMP; 5C9 10 µg/mL + M22 (fmol/cell well) [6]: 642 | cyclic AMP; 5C9 100 µg/mL + M22 (fmol/cell well) [6]: 657 | cyclic AMP; 5C9 100 µg/mL only (fmol/cell well) [6]: 458 | cyclic AMP; 5C9 0.01 µg/mL + TSH (fmol/cell well) [7]: 12900 | cyclic AMP; 5C9 0.1 µg/mL + TSH (fmol/cell well) [7]: 8580 | cyclic AMP; 5C9 1.0 µg/mL + TSH (fmol/cell well) [7]: 3420 | cyclic AMP; 5C9 10 µg/mL + TSH (fmol/cell well) [7]: 1110 | cyclic AMP; 5C9 100 µg/mL + TSH (fmol/cell well) [7]: 1720 | cyclic AMP; 5C9 100 µg/mL only (fmol/cell well) [7]: < 12.5 | Mutated/wild type (%); 5C9 0.01 µg/mL + TSH [8]: 160% | Mutated/wild type (%); 5C9 0.1 µg/mL + TSH [8]: 202% | Mutated/wild type (%); 5C9 1.0 µg/mL + TSH [8]: 370% | Mutated/wild type (%); 5C9 10 µg/mL + TSH [8]: 591% | Mutated/wild type (%); 5C9 100 µg/mL + TSH [8]: 524% | cyclic AMP; 5C9 0.01 µg/mL + TSH (fmol/cell well) [8]: 20600 | cyclic AMP; 5C9 0.1 µg/mL + TSH (fmol/cell well) [8]: 17300 | cyclic AMP; 5C9 1.0 µg/mL + TSH (fmol/cell well) [8]: 12700 | cyclic AMP; 5C9 10 µg/mL + TSH (fmol/cell well) [8]: 6590 | cyclic AMP; 5C9 100 µg/mL + TSH (fmol/cell well) [8]: 9010 | cyclic AMP; 5C9 100 µg/mL only (fmol/cell well) [8]: 54

B1: 5C9 IgG (human monoclonal autoantibody to the TSHR) (antibody, from another filing, V domains shown)
VH: EVQLVESGGGLIQPGGSLRLSCAASGFTVSSNYMSWVRQAPGKGLEWVSVTYSGGSTSYADSVKGRFTISRDNSKNTLYLQMNSLRAEDTAVYYCARGGRYCSSISCYARSGCDYWGQGTLVTVSS
VL: AIQMTQSPSSLSASVGDRVTITCRASQSISNYLNWYQQKPGKAPKLLIYAASSLQSGVPSRFSGSGSGTDFTLTISSLQPEDFATYYCQQSYSSPSTTFGQGTKLEIK
% of labelled protein bound [9]: 17% | % of labelled protein bound [10]: 13% | Cyclic AMP produced; 5C9 0.01 µg/mL + TSH (fmol/cell well) [11]: 15400 | Cyclic AMP produced; 5C9 0.1 µg/mL + TSH (fmol/cell well) [11]: 4700 | Cyclic AMP produced; 5C9 1.0 µg/mL + TSH (fmol/cell well) [11]: 1180 | Cyclic AMP produced; 5C9 10 µg/mL + TSH (fmol/cell well) [11]: 984 | Cyclic AMP produced; 5C9 100 µg/mL + TSH (fmol/cell well) [11]: 602 | Cyclic AMP produced; 5C9 100 µg/mL only (fmol/cell well) [11]: 272 | Cyclic AMP produced; 5C9 0.01 µg/mL + TSH (fmol/cell well) [12]: 5960 | Cyclic AMP produced; 5C9 0.1 µg/mL + TSH (fmol/cell well) [12]: 278 | Cyclic AMP produced; 5C9 1.0 µg/mL + TSH (fmol/cell well) [12]: 360 | Cyclic AMP produced; 5C9 10 µg/mL + TSH (fmol/cell well) [12]: 482 | Cyclic AMP produced; 5C9 100 µg/mL + TSH (fmol/cell well) [12]: 354 | Cyclic AMP produced; 5C9 100 µg/mL only (fmol/cell well) [12]: 280 | Mutated/wild type (%); 5C9 0.01 µg/mL + TSH [12]: 39% | Mutated/wild type (%); 5C9 0.1 µg/mL + TSH [12]: 6% | Mutated/wild type (%); 5C9 1.0 µg/mL + TSH [12]: 30% | Mutated/wild type (%); 5C9 10 µg/mL + TSH [12]: 49% | Mutated/wild type (%); 5C9 100 µg/mL + TSH [12]: 59% | Mutated/wild type (%); 5C9 100 µg/mL only [12]: 103% | Cyclic AMP produced; 5C9 0.01 µg/mL + TSH (fmol/cell well) [13]: 8170 | Cyclic AMP produced; 5C9 0.1 µg/mL + TSH (fmol/cell well) [13]: 7310 | Cyclic AMP produced; 5C9 1.0 µg/mL + TSH (fmol/cell well) [13]: 3570 | Cyclic AMP produced; 5C9 10 µg/mL + TSH (fmol/cell well) [13]: 1900 | Cyclic AMP produced; 5C9 100 µg/mL + TSH (fmol/cell well) [13]: 894 | Cyclic AMP produced; 5C9 100 µg/mL only (fmol/cell well) [13]: 134 | Mutated/wild type (%); 5C9 0.01 µg/mL + TSH [13]: 65% | Mutated/wild type (%); 5C9 0.1 µg/mL + TSH [13]: 168% | Mutated/wild type (%); 5C9 1.0 µg/mL + TSH [13]: 519% | Mutated/wild type (%); 5C9 10 µg/mL + TSH [13]: 302% | Mutated/wild type (%); 5C9 100 µg/mL + TSH [13]: 126% | Mutated/wild type (%); 5C9 100 µg/mL only [13]: 68% | Cyclic AMP produced; 5C9 0.01 µg/mL + TSH (fmol/cell well) [14]: 12600 | Cyclic AMP produced; 5C9 0.1 µg/mL + TSH (fmol/cell well) [14]: 4350 | Cyclic AMP produced; 5C9 1.0 µg/mL + TSH (fmol/cell well) [14]: 688 | Cyclic AMP produced; 5C9 10 µg/mL + TSH (fmol/cell well) [14]: 630 | Cyclic AMP produced; 5C9 100 µg/mL + TSH (fmol/cell well) [14]: 712 | Cyclic AMP produced; 5C9 100 µg/mL only (fmol/cell well) [14]: 196 | average % binding of labelled tracer [15]: 20% | Cyclic AMP produced; 5C9 0.01 µg/mL + TSH (fmol/cell well) [16]: 14700 | Cyclic AMP produced; 5C9 0.1 µg/mL + TSH (fmol/cell well) [16]: 13100 | Cyclic AMP produced; 5C9 1.0 µg/mL + TSH (fmol/cell well) [16]: 14700 | Cyclic AMP produced; 5C9 10 µg/mL + TSH (fmol/cell well) [16]: 12600 | Cyclic AMP produced; 5C9 100 µg/mL + TSH (fmol/cell well) [16]: 12700 | Cyclic AMP produced; 5C9 100 µg/mL only (fmol/cell well) [16]: 1370 | Mutated/wild type (%); 5C9 0.01 µg/mL + TSH [16]: 95% | Mutated/wild type (%); 5C9 0.1 µg/mL + TSH [16]: 296% | Mutated/wild type (%); 5C9 1.0 µg/mL + TSH [16]: 1090% | Mutated/wild type (%); 5C9 10 µg/mL + TSH [16]: 1570% | Mutated/wild type (%); 5C9 100 µg/mL + TSH [16]: 3450% | Mutated/wild type (%); 5C9 100 µg/mL only [16]: 415% | Cyclic AMP produced; 5C9 0.01 µg/mL + TSH (fmol/cell well) [17]: 15500 | Cyclic AMP produced; 5C9 0.1 µg/mL + TSH (fmol/cell well) [17]: 4440 | Cyclic AMP produced; 5C9 1.0 µg/mL + TSH (fmol/cell well) [17]: 1350 | Cyclic AMP produced; 5C9 10 µg/mL + TSH (fmol/cell well) [17]: 807 | Cyclic AMP produced; 5C9 100 µg/mL + TSH (fmol/cell well) [17]: 367 | Cyclic AMP produced; 5C9 100 µg/mL only (fmol/cell well) [17]: 330 | Abs 450 nm [18]: 2.42 Abs 450 nm
